Starred links: 1 amine or outer side, 2 acyl side, 3 side chain; linkers in the order of their positions; H or OH if unused. Non-standard residues stand in square brackets, D forms with d. *: point of attachment. 4‑nitrohippuryl = O=C(NCC(=O)*)c1ccc([N+](=O)[O-])cc1; Benzoyl(4-(pyrrol-1-yl)) = O=C(c1ccc(-n2cccc2)cc1)*; bis(2,3-dihydroxybenzyl) = not defined here; Cysteamide = C(CS[*:3])N[*:1]; Dap = NC[C@H](N)C(=O)O
T1: protein kinase C ζ (UniProt Q05513 1-592, limits assumed)
T1 construct: also called PKCζ; PKC ζ
T1 sequence (looked up): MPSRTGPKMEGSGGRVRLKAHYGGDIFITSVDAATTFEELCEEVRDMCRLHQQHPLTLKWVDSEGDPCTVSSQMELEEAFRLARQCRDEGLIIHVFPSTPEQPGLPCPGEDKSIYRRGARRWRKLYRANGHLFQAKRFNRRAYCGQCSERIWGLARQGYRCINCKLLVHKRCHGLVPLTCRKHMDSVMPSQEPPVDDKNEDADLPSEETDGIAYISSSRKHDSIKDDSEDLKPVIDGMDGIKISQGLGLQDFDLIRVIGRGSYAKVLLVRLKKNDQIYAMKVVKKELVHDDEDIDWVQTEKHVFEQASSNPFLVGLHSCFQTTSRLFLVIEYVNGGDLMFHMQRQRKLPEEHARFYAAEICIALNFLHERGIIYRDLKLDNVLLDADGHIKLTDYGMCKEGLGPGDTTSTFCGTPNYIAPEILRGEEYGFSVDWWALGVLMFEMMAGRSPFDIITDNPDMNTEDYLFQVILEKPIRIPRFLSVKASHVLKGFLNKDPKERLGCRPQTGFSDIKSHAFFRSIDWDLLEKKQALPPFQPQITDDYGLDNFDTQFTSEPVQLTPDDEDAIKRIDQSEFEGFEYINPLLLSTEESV

T2: protein kinase C ε (UniProt Q02156 1-737, limits assumed)
T2 sequence (looked up): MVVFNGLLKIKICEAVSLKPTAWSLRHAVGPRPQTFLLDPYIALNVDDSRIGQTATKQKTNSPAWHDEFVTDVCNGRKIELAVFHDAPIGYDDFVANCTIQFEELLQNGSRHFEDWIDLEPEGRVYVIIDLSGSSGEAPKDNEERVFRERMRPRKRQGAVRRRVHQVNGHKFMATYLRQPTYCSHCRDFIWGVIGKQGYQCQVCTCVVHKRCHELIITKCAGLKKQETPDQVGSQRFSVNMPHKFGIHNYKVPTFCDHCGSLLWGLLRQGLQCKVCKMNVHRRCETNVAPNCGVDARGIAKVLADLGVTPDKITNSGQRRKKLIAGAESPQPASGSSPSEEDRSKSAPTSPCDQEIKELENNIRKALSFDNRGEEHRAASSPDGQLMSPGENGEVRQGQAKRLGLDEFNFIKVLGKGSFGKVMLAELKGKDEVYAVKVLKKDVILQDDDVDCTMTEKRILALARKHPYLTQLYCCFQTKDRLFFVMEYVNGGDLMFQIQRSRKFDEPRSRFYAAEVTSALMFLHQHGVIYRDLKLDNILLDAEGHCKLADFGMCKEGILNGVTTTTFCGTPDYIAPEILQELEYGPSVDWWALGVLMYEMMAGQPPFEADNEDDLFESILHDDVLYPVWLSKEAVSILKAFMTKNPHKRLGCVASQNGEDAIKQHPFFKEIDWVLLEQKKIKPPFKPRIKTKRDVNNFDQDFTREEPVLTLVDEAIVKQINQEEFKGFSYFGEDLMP

T3: protein kinase C τ (atypical; ι in the tables) (UniProt P41743 1-596)
T3 sequence (looked up): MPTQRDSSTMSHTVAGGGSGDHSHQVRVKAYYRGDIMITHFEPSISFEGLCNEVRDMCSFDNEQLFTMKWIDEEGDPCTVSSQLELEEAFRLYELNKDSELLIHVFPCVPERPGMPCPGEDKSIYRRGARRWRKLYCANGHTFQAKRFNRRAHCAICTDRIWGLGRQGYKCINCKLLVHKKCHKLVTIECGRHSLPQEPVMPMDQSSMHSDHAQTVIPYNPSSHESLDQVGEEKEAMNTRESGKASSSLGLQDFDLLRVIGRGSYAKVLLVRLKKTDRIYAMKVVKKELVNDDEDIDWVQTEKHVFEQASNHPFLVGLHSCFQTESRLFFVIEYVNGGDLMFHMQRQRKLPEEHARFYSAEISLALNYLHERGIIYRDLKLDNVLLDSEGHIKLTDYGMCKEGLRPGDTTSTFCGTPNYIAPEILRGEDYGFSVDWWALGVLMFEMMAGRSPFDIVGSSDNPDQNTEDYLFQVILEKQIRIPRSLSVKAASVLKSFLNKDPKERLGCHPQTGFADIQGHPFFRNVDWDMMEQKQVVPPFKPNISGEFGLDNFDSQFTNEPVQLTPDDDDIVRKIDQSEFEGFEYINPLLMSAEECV


Columns and labels:
protein kinase C ζ [1] = biological target: T1, protein kinase C ζ; test: PKC ζ 33P kinase assay, double reciprocal plots at variable peptide substrate; competitive pattern
Protocol: K_i determinations. […] ATP for radioactive detection. 10 µL enzyme diluted buffer containing 20 mM Tris (pH 7.5), PKC (10 ng/well), 0.5 mM DTT, BSA (375 µg/mL) and 0.5 mM EDTA.4Na.2H_2O was added to initiate the reaction. Total reaction volume in each well was 50 µL. All the wells were tested in the same plate and each concentration was tested in triplicate. Subsequent assay workup and scintillation counting were performed as described above. Double reciprocal plots were obtained at different concentrations of substrates. K_i values were calculated using Enzyme Kinetics, SigmaPlot (SPSS Inc.).

protein kinase C ε [2] = biological target: T2, protein kinase C ε; test: cell-based or functional assay
protein kinase C θ [3] = biological target: T4, protein kinase C θ (UniProt Q04759 1-706, limits assumed); test: cell-based or functional assay
T4 sequence (Q04759 whole entry): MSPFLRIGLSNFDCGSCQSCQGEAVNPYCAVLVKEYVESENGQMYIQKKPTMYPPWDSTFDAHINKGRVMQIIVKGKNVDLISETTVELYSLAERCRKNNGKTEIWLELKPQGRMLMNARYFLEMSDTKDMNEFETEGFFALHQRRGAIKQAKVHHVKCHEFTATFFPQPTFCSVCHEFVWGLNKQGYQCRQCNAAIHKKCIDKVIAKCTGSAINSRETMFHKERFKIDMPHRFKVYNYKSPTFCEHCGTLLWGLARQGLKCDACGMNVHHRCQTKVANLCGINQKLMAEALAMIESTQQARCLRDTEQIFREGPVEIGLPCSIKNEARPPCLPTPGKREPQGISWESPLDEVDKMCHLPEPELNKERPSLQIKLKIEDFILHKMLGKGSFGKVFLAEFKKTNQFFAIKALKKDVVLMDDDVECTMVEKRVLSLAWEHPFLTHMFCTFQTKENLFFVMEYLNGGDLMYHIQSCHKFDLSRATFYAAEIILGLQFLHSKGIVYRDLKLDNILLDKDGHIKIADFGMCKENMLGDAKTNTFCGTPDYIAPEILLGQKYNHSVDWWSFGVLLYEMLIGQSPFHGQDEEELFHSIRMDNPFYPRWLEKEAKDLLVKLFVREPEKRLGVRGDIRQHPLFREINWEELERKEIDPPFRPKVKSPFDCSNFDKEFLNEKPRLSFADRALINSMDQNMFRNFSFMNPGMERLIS

[4] = biological target: T3, protein kinase C τ (atypical; printed ι …); test: cell-based or functional assay
protein kinase C βI [5] = biological target: T5, protein kinase C βI (UniProt P05771-1 1-671, limits assumed); test: cell-based or functional assay
T5 sequence (P05771 whole entry): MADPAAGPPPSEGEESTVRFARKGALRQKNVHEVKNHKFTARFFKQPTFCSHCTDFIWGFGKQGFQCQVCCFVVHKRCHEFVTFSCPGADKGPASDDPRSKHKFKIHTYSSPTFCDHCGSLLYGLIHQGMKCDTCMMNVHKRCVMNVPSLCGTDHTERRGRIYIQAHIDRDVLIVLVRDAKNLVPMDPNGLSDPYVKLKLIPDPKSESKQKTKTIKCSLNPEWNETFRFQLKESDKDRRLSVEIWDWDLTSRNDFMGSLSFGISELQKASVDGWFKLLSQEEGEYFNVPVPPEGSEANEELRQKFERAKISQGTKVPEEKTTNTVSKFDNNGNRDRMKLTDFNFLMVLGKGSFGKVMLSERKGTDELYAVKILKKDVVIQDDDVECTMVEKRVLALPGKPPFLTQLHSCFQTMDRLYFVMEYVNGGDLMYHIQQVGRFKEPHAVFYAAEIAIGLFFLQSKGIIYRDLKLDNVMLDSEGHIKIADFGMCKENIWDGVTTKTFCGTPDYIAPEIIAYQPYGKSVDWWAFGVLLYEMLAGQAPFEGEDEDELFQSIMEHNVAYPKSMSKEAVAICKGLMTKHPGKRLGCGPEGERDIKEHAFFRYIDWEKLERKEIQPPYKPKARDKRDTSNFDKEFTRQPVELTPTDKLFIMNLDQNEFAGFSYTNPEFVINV

protein kinase Cα [6] = biological target: T6, protein kinase Cα (UniProt P17252 1-672, limits assumed); test: cell-based or functional assay
protein kinase C γ [7] = biological target: T7, protein kinase C γ (UniProt P05129 1-697, limits assumed); test: cell-based or functional assay
protein kinase C η [8] = biological target: T8, protein kinase C η (UniProt P24723 1-683, limits assumed); test: cell-based or functional assay
T8 sequence (P24723 whole entry): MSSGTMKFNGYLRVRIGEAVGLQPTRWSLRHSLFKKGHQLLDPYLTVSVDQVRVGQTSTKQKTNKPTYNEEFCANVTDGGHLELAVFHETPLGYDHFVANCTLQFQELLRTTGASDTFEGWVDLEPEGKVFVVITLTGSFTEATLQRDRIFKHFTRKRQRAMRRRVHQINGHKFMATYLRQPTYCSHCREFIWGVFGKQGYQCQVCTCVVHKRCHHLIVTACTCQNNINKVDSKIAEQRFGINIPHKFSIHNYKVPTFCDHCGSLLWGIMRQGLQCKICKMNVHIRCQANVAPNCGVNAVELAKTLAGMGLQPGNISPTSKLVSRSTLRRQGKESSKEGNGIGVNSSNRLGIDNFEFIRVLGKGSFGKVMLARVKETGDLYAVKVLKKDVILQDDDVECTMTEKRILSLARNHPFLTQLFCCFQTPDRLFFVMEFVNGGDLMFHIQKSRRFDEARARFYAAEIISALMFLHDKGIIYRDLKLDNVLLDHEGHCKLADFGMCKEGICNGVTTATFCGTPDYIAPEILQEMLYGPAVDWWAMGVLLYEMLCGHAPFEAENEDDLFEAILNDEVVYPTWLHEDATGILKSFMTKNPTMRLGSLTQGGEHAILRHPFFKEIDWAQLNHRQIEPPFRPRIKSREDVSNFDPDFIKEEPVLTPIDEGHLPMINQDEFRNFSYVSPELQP

protein kinase C ζ [9] = biological target: T1, protein kinase C ζ; test: cell-based or functional assay
protein kinase C ε [10] = biological target: T2, protein kinase C ε; test: cell-based or functional assay; remark: listed apart in the source
protein kinase C θ [11] = biological target: T4, protein kinase C θ; test: cell-based or functional assay; remark: listed apart in the source
protein kinase C βI [12] = biological target: T5, protein kinase C βI; test: cell-based or functional assay; remark: listed apart in the source
protein kinase Cα [13] = biological target: T6, protein kinase Cα; test: cell-based or functional assay; remark: listed apart in the source
protein kinase C γ [14] = biological target: T7, protein kinase C γ; test: cell-based or functional assay; remark: listed apart in the source
protein kinase C η [15] = biological target: T8, protein kinase C η; test: cell-based or functional assay; remark: listed apart in the source
protein kinase C ζ [16] = biological target: T1, protein kinase C ζ; test: cell-based or functional assay; remark: listed apart in the source
protein kinase Cα [17] = biological target: T6, protein kinase Cα; test: equilibrium dialysis with fluorescence read-out, 250 nM PKCα and 500 nM peptide 7, 4° C., without AMP-PNP
Protocol: (§1) Determination of K_D Values. […] All samples were prepared in a buffer containing 50 mM HEPES (pH 7.5), 0.8 mM CaCl_2.2H_2O, 13.6 mM MgCl_2.6H_2O, 0.56 mM EGTA.Na, phosphatidylserine (90 µg/mL), diacylglycerol (16 µg/mL), 4 mM Tris (pH 7.5), 0.2 mM DTT, BSA (146 µg/mL), 0.2 mM EDTA.4Na.2H_2O and AMP-PNP (a nonhydrolyzable ATP analogue) or without AMP-PNP at pH 7.5. Slide-A-Lyzer dialysis slide cassettes (Pierce, 10K MWCO, 0.1-0.5 mL capacity) were employed and contained 250 nM PKCα and 500 nM fluorescein-labeled peptide 7. The slide cassettes contained a final volume of 180 µL. The cassettes were placed in beaker containing a volume of buffer solution that was at least 500-fold greater than that of the sample volume in the dialysis slide cassette. Equilibrium dialysis experiments were performed over a period of 16 hr and maintained at 4° C. The fluorescence intensity of the solutions in the slide cassette (F_i) and in the beaker (F_o) was measured. The excitation wavelength for the fluorescein-labeled peptide 7 was 499 nm and the emission monitored at 519 nm. The K_D values were calculated from Equation 1.

protein kinase Cα [18] = biological target: T6, protein kinase Cα; test: equilibrium dialysis with fluorescence read-out, 250 nM PKCα and 500 nM peptide 7, 4° C., with AMP-PNP
Protocol: as §1

Binder | Ki (protein kinase C ζ [1]) [µM] | Fold selectivity (IC50), PKC ζ = 1 (protein kinase C ε [2]) [fold] | Fold selectivity (IC50), PKC ζ = 1 (protein kinase C θ [3]) [fold] | Fold selectivity (IC50), PKC ζ = 1 [4] [fold] | Fold selectivity (IC50), PKC ζ = 1 (protein kinase C βI [5]) [fold] | Fold selectivity (IC50), PKC ζ = 1 (protein kinase Cα [6]) [fold] | Fold selectivity (IC50), PKC ζ = 1 (protein kinase C γ [7]) [fold] | Fold selectivity (IC50), PKC ζ = 1 (protein kinase C η [8]) [fold] | Fold selectivity (IC50), PKC ζ = 1 (protein kinase C ζ [9]) [fold] | IC50 or Ki of the most potently inhibited isoform (protein kinase C ζ [9]) [µM] | IC50, PKC kinase assay (33P, peptide substrate) (protein kinase C ε [10]) [µM] | IC50, PKC kinase assay (33P, peptide substrate) (protein kinase C θ [11]) [µM] | IC50, PKC kinase assay (33P, peptide substrate) (protein kinase C βI [12]) [µM] | IC50, PKC kinase assay (33P, peptide substrate) (protein kinase Cα [13]) [µM] | IC50, PKC kinase assay (33P, peptide substrate) (protein kinase C γ [14]) [µM] | IC50, PKC kinase assay (33P, peptide substrate) (protein kinase C η [15]) [µM] | IC50, PKC kinase assay (33P, peptide substrate) (protein kinase C ζ [16]) [µM] | Kd (protein kinase Cα [17]) [µM] | Kd (protein kinase Cα [18]) [µM]
{bis(2,3-dihydroxybenzyl)}-RRQG[Dap](4‑nitrohippuryl)FMYF-Cysteamide (reading uncertain) [Compound G (doubly alkylated analogue of F)] | 0.0039 | 4600 | 2230 | 1490 | 730 | 6330 | 5090 | 2040 | 1 | 0.0075 | 34.5 | 16.7 | 5.5 | 47.5 | 38.2 | 15.3 | 0.00075 |  | 
Ac-ARRGALR[Dap](Benzoyl(4-(pyrrol-1-yl)))A-{NH(CH2)2S-CH2CONH‑fluorescein‑5‑yl} [fluorescein-labeled peptide 7] |  |  |  |  |  |  |  |  |  |  |  |  |  |  |  |  |  | 1.8 | 0.203

From patent US7902330 (ALBERT EINSTEIN COLLEGE OF MEDICINE OF YESHIVA UNIVERSITY, dated 2011)
